Measured values: US20210347873A1 (SHANGHAI PHARMAEXPLORER, published 2021)
Values belong to the molecule of their own block, whether it stands above or below them.

Columns and labels:
[1] = target: mouse BLyS protein (mouse, UniProt Q9WU72 69-309); assay: cell-based or functional assay
[2] = target: T1, human APRIL protein (human, UniProt O75888 105-250, limits assumed); assay: ELISA, coated APRIL; antibody 13.3 nM
T1 construct: Bought protein; also called recombinant APRIL protein
T1 sequence (looked up): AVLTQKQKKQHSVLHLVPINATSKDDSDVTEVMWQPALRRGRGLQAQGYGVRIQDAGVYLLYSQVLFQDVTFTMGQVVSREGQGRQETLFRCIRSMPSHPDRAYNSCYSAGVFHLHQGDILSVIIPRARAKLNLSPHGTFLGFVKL
Method in brief: (§1)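 Cross-reactivity of BLyS antibodies with human APRIL is measured by ELISA. Wells are coated overnight at 4 °C with 1.0 μg/mL APRIL and blocked 2 h at 37 °C; antibodies, then HRP secondary, are each applied 1 h at 37 °C, and TMB colour is read at 450 nm.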

[3] = target: T1, human APRIL protein; assay: ELISA, coated APRIL; antibody 2.67 nM
Method in brief: as §1

[4] = target: T1, human APRIL protein; assay: ELISA, coated APRIL; antibody 0.00427 nM
Method in brief: as §1

[5] = target: T1, human APRIL protein; assay: ELISA, coated APRIL; antibody 0 nM (blank)
Method in brief: as §1

[6] = target: T2, human BLyS (full length, arginine to histidine at position 132) on CHO-K1 cells (human, UniProt Q9Y275 1-285); assay: flow cytometry, CHO-K1 hBLyS cells, antibody 2.67 nM
T2 construct: also called hBLyS; CHO-K1 hBLyS
T2 sequence (Q9Y275 whole entry R130H): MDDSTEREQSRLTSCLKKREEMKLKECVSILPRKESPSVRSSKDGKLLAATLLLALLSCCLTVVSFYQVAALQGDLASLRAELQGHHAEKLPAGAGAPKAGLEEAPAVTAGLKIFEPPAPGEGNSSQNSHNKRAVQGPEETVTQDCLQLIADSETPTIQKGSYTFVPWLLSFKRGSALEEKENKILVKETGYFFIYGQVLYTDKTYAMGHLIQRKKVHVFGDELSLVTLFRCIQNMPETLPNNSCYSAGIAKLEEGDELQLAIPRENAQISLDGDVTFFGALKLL

[7] = target: T2, human BLyS (full length, arginine to …); assay: flow cytometry, CHO-K1 hBLyS cells, antibody 66.7 nM
[8] = target: T3, cynomolgus BLyS (full length, arginine to histidine at position 132) on CHO-K1 cells (cynomolgus, UniProt Q9Y275 1-285 (human entry)); assay: flow cytometry, CHO-K1 cynoBLyS cells, antibody 0 nM
T3 construct: also called cyno BLyS; CHO-K1 cynoBLyS
T3 chain: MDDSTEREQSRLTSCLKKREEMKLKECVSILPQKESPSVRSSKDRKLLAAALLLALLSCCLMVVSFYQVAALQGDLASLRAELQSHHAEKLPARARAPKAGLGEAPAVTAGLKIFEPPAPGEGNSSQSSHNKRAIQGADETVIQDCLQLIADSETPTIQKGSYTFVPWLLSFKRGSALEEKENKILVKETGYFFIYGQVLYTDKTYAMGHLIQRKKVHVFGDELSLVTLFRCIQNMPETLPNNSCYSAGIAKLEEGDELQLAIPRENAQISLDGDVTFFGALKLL

[9] = target: T2, human BLyS (full length, arginine to …); assay: flow cytometry, CHO-K1 hBLyS cells, antibody 0.107 nM
[10] = target: T2, human BLyS (full length, arginine to …); assay: flow cytometry, CHO-K1 hBLyS cells, antibody 0.00427 nM
[11] = target: T3, cynomolgus BLyS (full length, arginine …); assay: flow cytometry, CHO-K1 cynoBLyS cells, antibody 13.3 nM
[12] = target: T3, cynomolgus BLyS (full length, arginine …); assay: flow cytometry, CHO-K1 cynoBLyS cells, antibody 2.67 nM
[13] = target: T3, cynomolgus BLyS (full length, arginine …); assay: flow cytometry, CHO-K1 cynoBLyS cells, antibody 0.107 nM

mouse BLyS protein, sequence (Q9WU72 69-309): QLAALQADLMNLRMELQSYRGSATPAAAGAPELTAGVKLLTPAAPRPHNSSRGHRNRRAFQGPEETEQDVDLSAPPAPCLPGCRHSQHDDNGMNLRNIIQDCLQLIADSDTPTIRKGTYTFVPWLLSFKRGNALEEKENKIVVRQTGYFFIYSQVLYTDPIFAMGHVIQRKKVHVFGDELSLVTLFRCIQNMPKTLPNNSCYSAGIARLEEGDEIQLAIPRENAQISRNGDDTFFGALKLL

mouse B lymphocyte proliferation (OD450 nm), antibody 0 nM [1]: 2220 OD450 nm
mouse B lymphocyte proliferation (OD450 nm), antibody 0.000256 nM [1]: 2220
mouse B lymphocyte proliferation (OD450 nm), antibody 0.00128 nM [1]: 2240 OD450 nm
mouse B lymphocyte proliferation (OD450 nm), antibody 0.0064 nM [1]: 2460 OD450 nm
mouse B lymphocyte proliferation (OD450 nm), antibody 0.032 nM [1]: 2500 OD450 nm
mouse B lymphocyte proliferation (OD450 nm), antibody 0.16 nM [1]: 2440 OD450 nm
mouse B lymphocyte proliferation (OD450 nm), antibody 0.8 nM [1]: 2510 OD450 nm
mouse B lymphocyte proliferation (OD450 nm), antibody 4 nM [1]: 2580 OD450 nm
mouse B lymphocyte proliferation (OD450 nm), antibody 20 nM [1]: 2600 OD450 nm
mouse B lymphocyte proliferation (OD450 nm), antibody 100 nM [1]: 2670 OD450 nm
OD450 nm [2]: 0.226
OD450 nm [3]: 0.128
OD450 nm [4]: 0.0693
OD450 nm [5]: 0.0711
Molecule: hIgG Control (antibody)

mouse B lymphocyte proliferation (OD450 nm), antibody 0 nM [1]: 2190 OD450 nm
mouse B lymphocyte proliferation (OD450 nm), antibody 0.000256 nM [1]: 2110
mouse B lymphocyte proliferation (OD450 nm), antibody 0.00128 nM [1]: 2270 OD450 nm
mouse B lymphocyte proliferation (OD450 nm), antibody 0.0064 nM [1]: 2420 OD450 nm
mouse B lymphocyte proliferation (OD450 nm), antibody 0.032 nM [1]: 2320 OD450 nm
mouse B lymphocyte proliferation (OD450 nm), antibody 0.16 nM [1]: 2330 OD450 nm
mouse B lymphocyte proliferation (OD450 nm), antibody 0.8 nM [1]: 2520 OD450 nm
mouse B lymphocyte proliferation (OD450 nm), antibody 4 nM [1]: 2440 OD450 nm
mouse B lymphocyte proliferation (OD450 nm), antibody 20 nM [1]: 2360 OD450 nm
mouse B lymphocyte proliferation (OD450 nm), antibody 100 nM [1]: 2350 OD450 nm
OD450 nm [2]: 0.0624
OD450 nm [3]: 0.0558
OD450 nm [4]: 0.0587
OD450 nm [5]: 0.0716
Molecule: mIgG Control (antibody)

mouse B lymphocyte proliferation (OD450 nm), antibody 0 nM [1]: 2120 OD450 nm
mouse B lymphocyte proliferation (OD450 nm), antibody 0.000256 nM [1]: 2300 OD450 nm
mouse B lymphocyte proliferation (OD450 nm), antibody 0.00128 nM [1]: 2150 OD450 nm
mouse B lymphocyte proliferation (OD450 nm), antibody 0.0064 nM [1]: 2130 OD450 nm
mouse B lymphocyte proliferation (OD450 nm), antibody 0.032 nM [1]: 2320 OD450 nm
mouse B lymphocyte proliferation (OD450 nm), antibody 0.16 nM [1]: 2290 OD450 nm
mouse B lymphocyte proliferation (OD450 nm), antibody 0.8 nM [1]: 2520 OD450 nm
mouse B lymphocyte proliferation (OD450 nm), antibody 4 nM [1]: 2710 OD450 nm
mouse B lymphocyte proliferation (OD450 nm), antibody 20 nM [1]: 2540 OD450 nm
mouse B lymphocyte proliferation (OD450 nm), antibody 100 nM [1]: 2360 OD450 nm
MFI [6]: 265 MFI
MFI [7]: 296 MFI
MFI [8]: 20.4 MFI
MFI [9]: 150 MFI
MFI [10]: 41.2 MFI
MFI [11]: 524 MFI
MFI [12]: 510 MFI
MFI [13]: 222 MFI
B1: 111D10D6G3 (antibody, V domains shown)
VH: QVQLQQPGAELVKPGASVKMSCKASGYTFTRHWITWVKQRPGQGLEWIGDIFPGSGSINYNEKFKSEATLTVEKSSSTAYMQLSSLTSEDSAVYYCARGDVDVWGTGTTVTVSS
VL: DIQMTQSPSSLSASLGERVSLTCRASQEIRGYLSWLQQKPNGTIKRLIYAASTLDSGVPKRFSATRSGSDFSLTISSLESEDFADYYCLQYASYPFTFGSGTKLEIK
notes: Mouse hybridoma monoclonal antibody purified on Protein G

OD450 nm [2]: 0.0573
OD450 nm [3]: 0.0583
OD450 nm [4]: 0.0538
OD450 nm [5]: 0.0547
B2: 111D10D6G3 (antibody, V domains shown)
VH: B1 VH
VL: B1 VL
notes: Mouse hybridoma antibody purified on Protein G

mouse B lymphocyte proliferation (OD450 nm), antibody 0 nM [1]: 2100 OD450 nm
mouse B lymphocyte proliferation (OD450 nm), antibody 0.000256 nM [1]: 2220 OD450 nm
mouse B lymphocyte proliferation (OD450 nm), antibody 0.00128 nM [1]: 2240 OD450 nm
mouse B lymphocyte proliferation (OD450 nm), antibody 0.0064 nM [1]: 2250 OD450 nm
mouse B lymphocyte proliferation (OD450 nm), antibody 0.032 nM [1]: 2320 OD450 nm
mouse B lymphocyte proliferation (OD450 nm), antibody 0.16 nM [1]: 2350 OD450 nm
mouse B lymphocyte proliferation (OD450 nm), antibody 0.8 nM [1]: 2300 OD450 nm
mouse B lymphocyte proliferation (OD450 nm), antibody 4 nM [1]: 2440 OD450 nm
mouse B lymphocyte proliferation (OD450 nm), antibody 20 nM [1]: 2350 OD450 nm
mouse B lymphocyte proliferation (OD450 nm), antibody 100 nM [1]: 2360 OD450 nm
MFI [6]: 532 MFI
MFI [7]: 596 MFI
MFI [8]: 19.8 MFI
MFI [9]: 282 MFI
MFI [10]: 67.4 MFI
MFI [11]: 1170 MFI
MFI [12]: 1130 MFI
MFI [13]: 477 MFI
B3: 8E7D9C7F5 (antibody, V domains shown)
VH: QVQLQQSGVELARPGASVKLSCKASGYTFTSYGISWVKQRTGQALEWIGEIYPRSGNTYYNEKFKGKATLTADKSSSTAYMELRSLTSEDSAVYFCARSGPITTLVATDYGMDYWGQGTSVTVSS
VL: DIVLTQSPASLAVSLGQRATISCRASKSVSTSSYSYMHWYQQKPGQPPKLLIKFASNLESGVPARFSGSGSGTDFTLNIHPVEEEDAATYYCQHSREFPYTFGGGTKLEIK
notes: as for B1

mouse B lymphocyte proliferation (OD450 nm), antibody 0 nM [1]: 2160 OD450 nm
mouse B lymphocyte proliferation (OD450 nm), antibody 0.000256 nM [1]: 2210 OD450 nm
mouse B lymphocyte proliferation (OD450 nm), antibody 0.00128 nM [1]: 2200 OD450 nm
mouse B lymphocyte proliferation (OD450 nm), antibody 0.0064 nM [1]: 2250 OD450 nm
mouse B lymphocyte proliferation (OD450 nm), antibody 0.032 nM [1]: 2370 OD450 nm
mouse B lymphocyte proliferation (OD450 nm), antibody 0.16 nM [1]: 2300 OD450 nm
mouse B lymphocyte proliferation (OD450 nm), antibody 0.8 nM [1]: 2410 OD450 nm
mouse B lymphocyte proliferation (OD450 nm), antibody 4 nM [1]: 2430 OD450 nm
mouse B lymphocyte proliferation (OD450 nm), antibody 20 nM [1]: 2400 OD450 nm
mouse B lymphocyte proliferation (OD450 nm), antibody 100 nM [1]: 2320 OD450 nm
MFI [6]: 448 MFI
MFI [7]: 525 MFI
MFI [8]: 20 MFI
MFI [9]: 158 MFI
MFI [10]: 44 MFI
MFI [11]: 943 MFI
MFI [12]: 956 MFI
MFI [13]: 243 MFI
B4: 97A3C2H4 (antibody, V domains shown)
VH: EVKLVESGGGLVQPGGSLKLSCAASGFTFSTYTMSWVRQTPEKRLEWVAYISYGGGSTSYPDTVKGRFTISRDNAKNTLYLQMSSLKSEDTAIYYCTRHVTVVENSMDYWGQGTSVTVSS
VL: DILLTQSPDILSVSPGERVSFSCRASQSIGTSIHWYQQRTNGSPRLLIKYVSESFSGTPSRFSGSGSGTAFTLTINSVESEDIADYYCQQTHSWPWTFGGGTKLEIK
notes: as for B1

OD450 nm [2]: 0.0848
OD450 nm [3]: 0.0617
OD450 nm [4]: 0.0625
OD450 nm [5]: 0.0566
B5: 97A3C2H4 (antibody, V domains shown)
VH: B4 VH
VL: B4 VL
notes: as for B2

OD450 nm [2]: 0.124
OD450 nm [3]: 0.102
OD450 nm [4]: 0.121
OD450 nm [5]: 0.0625
B6: L1D12 (antibody, human IgG1, V domains shown)
VH: QVQLVQSGGGLVQPGGSLRLSCAASGFTVSSNYMSWVRQAPGKGLEWVSVIYSGGSTYYADSVKGRFTISRDNSKNTLYLQMNSLRAEDTAVYYCARGFHDILTGYGMDVWGQGTTVTVSS
VL: SSELTQDPAVSVALGQTVRITCQGDSLRNYYAGWYQQKPGQAPVLVIYGKNNRPSGIPDRFSGSSSGNTASLTITGTQAEDEADYYCSSRDNSGTHLVEFGGGTKLTVL
notes: also called LID12

OD450 nm [2]: 0.107
OD450 nm [3]: 0.0751
OD450 nm [4]: 0.161
OD450 nm [5]: 0.0638
B7: L9G7 (antibody, human IgG1, V domains shown)
VH: QIQLVQSGAEVKKPGASVKVSCKASGYTFTSYGISWVRQAPGQGLEWMGWISAYNGNTNYAQKLQGRVTMTTDTSTSTAYMELRSLRSDDTAVYYCARTYYDILTGYYYYGMDVWGQGTTVTVSS
VL: EIVLTQSPGTLSLSPGERATLSCRTSQSVDTYLAWYQQKPGQAPRLLIYDASNRATGIPARFSGSGSGTDFTLTISSLEPEDFAVYYCQQRSNWPLTFGGGTKVEIK
